Experimental findings from US20180333502A1 are described below.

The target in the assay is activated human CD4 T cells (GITR) (human) (UniProt Q9Y5U5). Nature of the assay: FACS binding to activated human CD4 T cells; isotype control. Background: Flow cytometry measures light scatter and fluorescence of single cells or particles in a stream.

pEC50: −log10 of the molar value.

Sequence of activated human CD4 T cells (GITR) (human) (Q9Y5U5 26-241): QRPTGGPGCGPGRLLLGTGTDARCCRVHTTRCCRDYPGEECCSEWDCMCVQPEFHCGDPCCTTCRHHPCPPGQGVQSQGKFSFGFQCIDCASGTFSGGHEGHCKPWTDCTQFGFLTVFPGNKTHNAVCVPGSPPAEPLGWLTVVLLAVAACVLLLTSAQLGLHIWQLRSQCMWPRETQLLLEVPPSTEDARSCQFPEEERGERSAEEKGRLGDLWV

unrelated hIgG2: the pEC50 is 8.17. Turning to unrelated hIgG1, the pEC50 is 6.88.

In general, pEC50 refers to the EC50 on a negative log10 scale, so that one unit is a factor of ten.
